These results are taken from patent publication US20230279128A1 (SYNTHEKINE, published 2023).

The target of assay [1] is T1, extracellular domain of hIFNgR2 (human, UniProt P38484 28-247).
T1 construct: also called hIFNgR2 ECD; hIFNgR2-ECD
T1 sequence: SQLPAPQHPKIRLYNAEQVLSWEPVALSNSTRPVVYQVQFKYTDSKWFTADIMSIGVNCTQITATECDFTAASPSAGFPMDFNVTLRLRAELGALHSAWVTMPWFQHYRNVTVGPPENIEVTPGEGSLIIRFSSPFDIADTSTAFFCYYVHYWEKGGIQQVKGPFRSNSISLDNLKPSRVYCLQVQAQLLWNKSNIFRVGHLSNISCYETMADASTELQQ
The assay can be described thus: flow cytometry.

The target in assay [2] is T2, extracellular domain of mIFNgR2 (mouse).
T2 construct: also called mIFNgR2 ECD; mouse IFNgR2 extracellular domain
T2 chain: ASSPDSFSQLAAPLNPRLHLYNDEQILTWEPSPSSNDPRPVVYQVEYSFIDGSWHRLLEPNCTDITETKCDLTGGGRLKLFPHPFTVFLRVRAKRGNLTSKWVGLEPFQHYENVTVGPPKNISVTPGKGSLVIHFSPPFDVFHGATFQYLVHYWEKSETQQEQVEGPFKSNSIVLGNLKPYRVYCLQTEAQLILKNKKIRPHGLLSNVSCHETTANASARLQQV
The assay can be described thus: flow cytometry, cross-reactivity. Background: Flow cytometry measures light scatter and fluorescence of single cells or particles in a stream.

The target of assay [3] is T1, extracellular domain of hIFNgR2. In words: phage biopanning and periplasmic extract ELISA (PE-ELISA). How it is done: Upon completion of the biopanning of Example 3, three 96-well plates of individual phage clones were isolated in order to perform periplasmic extract ELISA (PE-ELISA) on IFNgR2 coated plates to identify positive VHH binders that selectively bound IFNgR2. A 96-well plate was coated with IFNgR2 and PBS under the same conditions. Next, wells were blocked at 37° C. for 1 h. Then, 100 μl of extracted antibodies was added to each well and incubated for 1 h. Subsequently, 100 μl of anti-tag polyclonal antibody conjugated to HRP was added to each well and incubated at 37° C. for 1 h. Plates were developed with TMB substrate. The reaction was stopped by the addition of H2SO4. Absorbance at 450 nm was read on a microtiter plate reader. Antibodies with absorbance of the antigen-coated well at least threefold greater than PBS-coated control were considered to provide specific binding to IFNgR2. Positive clones were sequenced, and sequences analyzed to identify unique clonotypes

B1: DR935 (VHH)
VHH: QVQLVESGGGLVQAGGSLRLSCAASGRAFSTYALGWFRQAPGKEREFIAAISRGGGSTDYADSVKGRFTISRDNAKSTVYLQMNSLKPEDTAVYYCAARSYSSSYYYSQYEYDYWGQGTQVTVSS
For B1, the binding result in assay [1] and in assay [2] was “binds” in each case.

B2: DR931 (VHH)
VHH: QVQLVESGGGLVQAGGSLLLSCAASGRTFSTYAMGWFRQAPGKERMFVAAISVNGGSTYYADSVTGRFTISRDNAKNTMYLQMNNLKPGDTAVYYCAARRPYPGSDFLTWASYDYRGQGTLVTVSS
Turning to B2, the binding result in assay [1] and in assay [2] was “binds” throughout.

B3: DR932 (VHH)
VHH: QVQLVESGGGLVQAGGFLRLSCAASGRTFSYTTIGWFRQAPGKEREFVAVISAGGGSRDYADALKGRFTISRDNAKKMVYLQMNNLKPEDTAVYYCAVRRNTDTYTTTGDYDYWGQGTQVTVSS
On to B3, for which the binding result in assay [1] and in assay [2] was “binds” each time.

B4: DR957 (VHH)
VHH: QVQLVESGGGLVQAGGSLRLSCAPSGRTFSSYAMAWFRQPPGKEREFVAAITVSGASTYYADSVKGRFTISRDNAKNSMYLQMNSLKPEDTAVYYCAAGGPGTIFPDYDYWGQGTQVTVSS
B4: the binding result in assay [2] and in assay [3] was “binds” in each case.

B5: DR934 (VHH)
VHH: QVQLVESGGGLVQAGGSLRLSCAASGRSFANYAMGWFRQAPGKERETVAAISRGGGSTWYADSVKGRFTISKDNAKNTVYLQMNSLKPEDTAIYYCAARSYSGSYTYSFGEYDYWGQGTQVTVSS
On to B5, for which the binding result in assay [1] and in assay [2] was “binds” each time.

B6: DR930 (VHH)
VHH: EVQLVESGGGLVQAGGSLRLSCTVSGRTFSSYAVAWFRQAPGNVRELAAALSRGGGSAYYTDSVKGRFTISRDNAKNTVYLQMNSLKPEDTAVYYCAARNYDGTYYQENQYNYWGQGTQVTVSS
Regarding B6, the binding result in assay [1] and in assay [2] was “binds” in each case.

B7: DR933 (VHH)
VHH: QVQLVESGGGLVQPGDSLRLSCVASGGTISSLAMGWFRQAPGKEREFVAAISWSGRSTYYVDSVKGRFTISTDNAKNTVYLQMNSLKPEDTAVYYCVAGEDGHSEYDYWGQGTQVTVSS
With B7, the binding result in assay [1] and in assay [2] was “binds” in each case.

B8: DR958 (VHH)
VHH: QVQLVESGGGLVQAGDSLTLSCTASGRTFSGYNMGWFRQAPGKERDFVAAINWIGGATYYADSVKGRFTISRDNAKNTVYLQMNSLKPEDTAVYYCHRYSEKFYSGKDYYTRDYDYWGQGTQVTVSS
For the molecule B8, the binding result in assay [2] and in assay [3] was “binds” throughout.
